# Target: HLA-A*0201 loaded with the Carcinoembryonic antigen (CEA)-derived … peptide (biotinylated on the C-terminal biotinylation tag)
# Assay: SPR (Biacore), Example 4
Kd,koff,Binder
≤ 1000 nM,≤ 2 s⁻¹,SEQ ID NO 50 (receptor) MGHLPKPTLWAEPGSVITQGSPVTLRCQGGQETQEYRLYREKKTAPWITRIPQELVKKGQFPIPSITWEHAGRYRCYYGSDTAGRSESSDPLELVVTGIYKAPTLSAQPSPVVNSGGNVTLQCDSQVAFDGFILCKEGEDEHPQCLNSQPHARGSSRAIFSVGPVSPGRRWWYRCYAYDSNSPYEWSLPSDLLELLVL
≤ 1000 nM,≤ 2 s⁻¹,SEQ ID NO 59 (receptor) MGHLPKPTLWAEPGSVITLGQPVTLRCQGGQETQEYRLYREKKTAPWITRIPQELVKKGQFPIPSITWEHAGRYRCYYGSDTSQWSASSDPLELVVTGIYLAPTLSAQPSPVVNSGGNVTLQCDSQVAFDGFILCKEGEDEHPQCLNSQPHARGSSRAIFSVGPVSPSRRWWYRCYAYDSNSPYEWSLPSDLLELLVL
≤ 1000 nM,≤ 2 s⁻¹,SEQ ID NO 66 (receptor) MHLPKPTLWAEPGSVITLGQPVTLRCQGGQETQEYRLYREKKTAPWITRIPQELVKKGQFPIPSITWEHAGRYRCYYGSDTSQWSASSDPLELVVTGVYIKPTLSAQPSPVVNSGGNVTLQCDSQVAFDGFILCKEGEDEHPQCLNSQPHARGSSRAIFSVGPVSPSRRWWYRCYAYDSNSPYEWSLPSDLLELDVDG
≤ 1000 nM,≤ 2 s⁻¹,SEQ ID NO 72 (receptor) MHLPKPTLWAEPGSVITMDQPVTLRCQGGQETQEYRLYREKKTAPWITRIPQELVKKGQFPIPSITWEHAGRYRCMQYTLTAGRSESSDPLELVVTGVYIKPTLSAQPSPVVNSGGNVTLQCDSQVAFDGFILCKEGEDEHPQCLNSQPHARGSSRAIFSVGPVSPSRRWWYRCYAYDSNSPYEWSLPSDLLELDVDG
≤ 1000 nM,≤ 2 s⁻¹,SEQ ID NO 64 (receptor) MHLPKPTLWAEPGSVITMDQPVTLRCQGGQETQEYRLYREKKTAPWITLIPQELVKKGQFPIPSITWEHAGRYRCYYGSDTSQWSASSDPLELVVTGVYIKPTLSAQPSPVVNSGGNVTLQCDSQVAFDGFILCKEGEDGHPQCLNSQPHARGSSRAIFSVGPVSPSRRWWYWCYAYDSNSPYEWSLPSDLLELDVDG
≤ 1000 nM,≤ 2 s⁻¹,SEQ ID NO 67 (receptor) MHLPKPTLWAEPGSVITLGSPVTLRCQGGQETQEYRLYREKKTAPWITRIPQELVKKGQFPIPSITWEHAGRYRCYYGSDTSQWSASSDPLELVVTGVYIKPTLSAQPSPVVNSGGNVTLQCDSQVAFDGFILCKEGEDEHPQCLNSQPHARGSSRAIFSVGPVSPSRRWWYRCYAYDSNSPYEWSLPSDLLELDVDG
≤ 1000 nM,≤ 2 s⁻¹,SEQ ID NO 69 (receptor) MHLPKPTLWAEPGSVITLQSPVTLRCQGGQETQEYRLYREKKTAPWITRIPQELVKKGQFPIPSITWEHAGRYRCYYGSDTSQWSASSDPLELVVTGVYIKPTLSAQPSPVVNSGGNVTLQCDSQVAFDGFILCKEGEDEHPQCLNSQPHARGSSRAIFSVGPVSPSRRWWYRCYAYDSNSPYEWSLPSDLLELDVDG
≤ 1000 nM,≤ 2 s⁻¹,SEQ ID NO 70 (receptor) MHLPKPTLWAEPGSVITLESPVTLRCQGGQETQEYRLYREKKTAPWITRIPQELVKKGQFPIPSITWEHAGRYRCYYGSDTSQWSASSDPLELVVTGVYIKPTLSAQPSPVVNSGGNVTLQCDSQVAFDGFILCKEGEDEHPQCLNSQPHARGSSRAIFSVGPVSPSRRWWYRCYAYDSNSPYEWSLPSDLLELDVDG
≤ 1000 nM,≤ 2 s⁻¹,SEQ ID NO 68 (receptor) MHLPKPTLWAEPGSVITLRSPVTLRCQGGQETQEYRLYREKKTAPWITRIPQELVKKGQFPIPSITWEHAGRYRCYYGSDTSQWSASSDPLELVVTGVYIKPTLSAQPSPVVNSGGNVTLQCDSQVAFDGFILCKEGEDEHPQCLNSQPHARGSSRAIFSVGPVSPSRRWWYRCYAYDSNSPYEWSLPSDLLELDVDG
≤ 1000 nM,≤ 2 s⁻¹,SEQ ID NO 60 (receptor) MGHLPKPTLWAEPGSVITMDQPVTLRCQGGQETQEYRLYREKKTAPWITRIPQELVKKGQFPIPSITWEHAGRYRCIGRSQTSQWSASSDPLELVVTGIYLAPTLSAQPSPVVNSGGNVTLQCDSQVAFDGFILCKEGEDEHPQCLNSQPHARGSSRAIFSVGPVSPSRRWWYRCYAYDSNSPYEWSLPSDLLELLVL
≤ 1000 nM,≤ 2 s⁻¹,SEQ ID NO 61 (receptor) MGHLPKPTLWAEPGSVITLGQPVTLRCQGGQETQEYRLYREKKTAPWITRIPQELVKKGQFPIPSITWEHAGRYRCIGRSQTSQWSASSDPLELVVTGIYLAPTLSAQPSPVVNSGGNVTLQCDSQVAFDGFILCKEGEDEHPQCLNSQPHARGSSRAIFSVGPVSPSRRWWYRCYAYDSNSPYEWSLPSDLLELLVL

# The remaining lines, values behind:
Binder,Kd,koff
SEQ ID NO 56 (receptor) MGHLPKPTLWAEPGSVITMDQPVTLRCQGGQETQEYRLYREKKTAPWITRIPQELVKKGQFPIPSITWEHAGRYRCYYGSDTAGRSESSDPLELVVTGIYLAPTLSAQPSPVVNSGGNVTLQCDSQVAFDGFILCKEGEDEHPQCLNSQPHARGSSRAIFSVGPVSPSRRWWYRCYAYDSNSPYEWSLPSDLLELLVL,≤ 1000 nM,≤ 2 s⁻¹
SEQ ID NO 55 (receptor) MGHLPKPTLWAEPGSVITQGSPVTLRCQGGQETQEYRLYREKKTAPWITRIPQELVKKGQFPIPSITWEHAGRYRCYYGSDTAGRSESSDPLELVVTGIYQKPTLSAQPSPVVNSGGNVTLQCDSQVAFDGFILCKEGEDEHPQCLNSQPHARGSSRAIFSVGPVSPSRRWWYRCYAYDSNSPYEWSLPSDLLELLVL,≤ 1000 nM,≤ 2 s⁻¹
SEQ ID NO 54 (receptor) MGHLPKPTLWAEPGSVITQGSPVTLRCQGGQETQEYRLYREKKTAPWITRIPQELVKKGQFPIPSITWEHAGRYRCYYGSDTAGRSESSDPLELVVTGIYKQPTLSAQPSPVVNSGGNVTLQCDSQVAFDGFILCKEGEDEHPQCLNSQPHARGSSRAIFSVGPVSPGRRWWYRCYAYDSNSPYEWSLPSDLLELLVL,≤ 1000 nM,≤ 2 s⁻¹
SEQ ID NO 52 (receptor) MGHLPKPTLWAEPGSVITQGSPVTLRCQGGQETQEYRLYREKKTAPWITRIPQELVKKGQFPIPSITWEHAGRYRCYYGSDTAGRSESSDPLELVVTGIYQAPTLSAQPSPVVNSGGNVTLQCDSQVAFDGFILCKEGEDEHPQCLNSQPHARGSSRAIFSVGPVSPGRRWWYRCYAYDSNSPYEWSLPSDLLELLVL,≤ 1000 nM,≤ 2 s⁻¹
SEQ ID NO 58 (receptor) MGHLPKPTLWAEPGSVITMDQPVTLRCQGGQETQEYRLYREKKTAPWITRIPQELVKKGQFPIPSITWEHAGRYRCYYGSDTSQWSASSDPLELVVTGIYLAPTLSAQPSPVVNSGGNVTLQCDSQVAFDGFILCKEGEDEHPQCLNSQPHARGSSRAIFSVGPVSPSRRWWYRCYAYDSNSPYEWSLPSDLLELLVL,≤ 1000 nM,≤ 2 s⁻¹
SEQ ID NO 53 (receptor) MGHLPKPTLWAEPGSVITQGSPVTLRCQGGQETQEYRLYREKKTAPWITRIPQELVKKGQFPIPSITWEHAGRYRCYYGSDTAGRSESSDPLELVVTGIYLQPTLSAQPSPVVNSGGNVTLQCDSQVAFDGFILCKEGEDEHPQCLNSQPHARGSSRAIFSVGPVSPGRRWWYRCYAYDSNSPYEWSLPSDLLELLVL,≤ 1000 nM,≤ 2 s⁻¹
SEQ ID NO 57 (receptor) MGHLPKPTLWAEPGSVITLGQPVTLRCQGGQETQEYRLYREKKTAPWITRIPQELVKKGQFPIPSITWEHAGRYRCYYGSDTAGRSESSDPLELVVTGIYLAPTLSAQPSPVVNSGGNVTLQCDSQVAFDGFILCKEGEDEHPQCLNSQPHARGSSRAIFSVGPVSPSRRWWYRCYAYDSNSPYEWSLPSDLLELLVL,≤ 1000 nM,≤ 2 s⁻¹
SEQ ID NO 51 (receptor) MGHLPKPTLWAEPGSVITQGSPVTLRCQGGQETQEYRLYREKKTAPWITRIPQELVKKGQFPIPSITWEHAGRYRCYYGSDTAGRSESSDPLELVVTGIYQRPTLSAQPSPVVNSGGNVTLQCDSQVAFDGFILCKEGEDEHPQCLNSQPHARGSSRAIFSVGPVSPGRRWWYRCYAYDSNSPYEWSLPSDLLELLVL,≤ 1000 nM,≤ 2 s⁻¹
SEQ ID NO 62 (receptor) MHLPKPTLWAEPGSVITMDQPVTLRCQGGQETQEYRLYREKKTAPWITRIPQELVKKGQFPIPSITWEHAGRYRCYYGSDTSQWSASSDPLELVVTGVYIKPTLSAQPSPVVNSGGNVTLQCDSQVAFDGFILCKEGEDEHPQCLNSQPHARGSSRAIFSVGPVSPSRRWWYRCYAYDSNSPYEWSLPSDLLELDVDG,≤ 1000 nM,≤ 2 s⁻¹
SEQ ID NO 63 (receptor) MHLPKPTLWAEPGSVITMDQPVTLRCQGGQETQEYRLYREKKTAPWITRIPQELVKKGQFPIPSITWEHAGRYRCYYGSDTSQWSASSDPLELVVTGVYIKPTLSAQPSPVVNSGGNVTLQCDSQVAFDGFILCKEGEDEHPQCLNSQPHARGSSRAIFSVGPVSPSRRWRYRCYAYDSNSPYEWSLPSDLLELDVDG,≤ 1000 nM,≤ 2 s⁻¹
SEQ ID NO 65 (receptor) MHLPKPTLWAEPGSVITMDQPVTLRCQGGQETQEYRLYRERKTAPWITRIPQELVKKGQFPIPSITWEHAGRYRCYYGSDTSQWSASSDPLELVVTGVYIKPTLSAQPSPVVNSGGNVTLQCDSQVAFDGFILCKEGEDEHPQCLNSQPHARGSSRAIFSVGPVSPSRRWWYRCYAYDSNSPYEWSLPSDLLELDVDG,≤ 1000 nM,≤ 2 s⁻¹
SEQ ID NO 71 (receptor) MHLPKPTLWAEPGSVITMDQPVTLRCQGGQETQEYRLYREKKTAPWITRIPQELVKKGQFPIPSITWEHAGRYRCYYGTQTAGRSESSDPLELVVTGVYIKPTLSAQPSPVVNSGGNVTLQCDSQVAFDGFILCKEGEDEHPQCLNSQPHARGSSRAIFSVGPVSPSRRWWYRCYAYDSNSPYEWSLPSDLLELDVDG,≤ 1000 nM,≤ 2 s⁻¹
